Earlier results in article PMC8062757.

Molecular target: Myostatin (Gallus gallus) (UniProt O42220)
Sequence of UniProt O42220 (O42220 267-375): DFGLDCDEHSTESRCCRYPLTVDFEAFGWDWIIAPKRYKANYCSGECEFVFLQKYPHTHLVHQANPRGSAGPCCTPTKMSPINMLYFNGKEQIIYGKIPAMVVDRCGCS

Kd: 0.584 nM
Substance: Follistatin (from UniProt Q90844)
